Source: publication PMC5573408 (2017)
No end group written: not given here. fluorescein = fluorescein, fluorescent label at the C-terminus

Experiments:
Cannabinoid receptor 2 [1] = molecular target: T1, Cannabinoid receptor 2 (Homo sapiens, UniProt P34972); experiment: fluorescent pepcan-F4 displacement on CHO-K1-hCB2 cells
Cannabinoid receptor 2 [2] = molecular target: T1, Cannabinoid receptor 2; experiment: fluorescence saturation binding on CHO-K1-hCB2 cells
Cannabinoid receptor 2 [3] = molecular target: T1, Cannabinoid receptor 2; experiment: radioligand binding [3H]CP55,940, ternary complex allosteric model
Cannabinoid receptor 2 [4] = molecular target: T1, Cannabinoid receptor 2; experiment: radioligand binding [3H]WIN55,212-2, ternary complex allosteric model

T1 sequence (P34972 whole entry): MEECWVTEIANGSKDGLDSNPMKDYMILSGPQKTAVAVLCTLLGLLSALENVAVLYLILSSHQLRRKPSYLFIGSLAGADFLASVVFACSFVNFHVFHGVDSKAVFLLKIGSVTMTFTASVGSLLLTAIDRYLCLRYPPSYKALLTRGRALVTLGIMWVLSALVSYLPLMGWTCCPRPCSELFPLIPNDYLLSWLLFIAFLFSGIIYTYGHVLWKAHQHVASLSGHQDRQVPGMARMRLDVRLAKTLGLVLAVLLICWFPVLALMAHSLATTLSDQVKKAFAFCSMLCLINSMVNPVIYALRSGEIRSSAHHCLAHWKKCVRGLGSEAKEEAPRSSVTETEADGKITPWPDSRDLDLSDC

B1: Pepcan-12 (RVD-hemopressin) (peptide)
chain: RVDPVNFKLLSH
Ki (Cannabinoid receptor 2 [1]): 44 nM

B2: Pepcan-F4 (peptide)
chain: RVDPVNFKLLSH-fluorescein
Kd (Cannabinoid receptor 2 [2]): 122 nM

B3: Pepcan-12 (RVD-hemopressin) (peptide)
chain: RVDPVNFKLLSH
modifications: [3H]CP55,940 present
Kd (Cannabinoid receptor 2 [3]): 58 nM

B4: Pepcan-12 (RVD-hemopressin) (peptide)
chain: RVDPVNFKLLSH
modifications: [3H]WIN55,212-2 present
Kd (Cannabinoid receptor 2 [4]): 53 nM
